Source: article PMC11006224
pKd: −log10 of the molar value.

Biological target: human FcRn-b2m protein construct containing an AviTag (human) (UniProt P55899)
Assay: BLI

UniProt P55899, sequence (P55899 24-365, chain 1 of 2): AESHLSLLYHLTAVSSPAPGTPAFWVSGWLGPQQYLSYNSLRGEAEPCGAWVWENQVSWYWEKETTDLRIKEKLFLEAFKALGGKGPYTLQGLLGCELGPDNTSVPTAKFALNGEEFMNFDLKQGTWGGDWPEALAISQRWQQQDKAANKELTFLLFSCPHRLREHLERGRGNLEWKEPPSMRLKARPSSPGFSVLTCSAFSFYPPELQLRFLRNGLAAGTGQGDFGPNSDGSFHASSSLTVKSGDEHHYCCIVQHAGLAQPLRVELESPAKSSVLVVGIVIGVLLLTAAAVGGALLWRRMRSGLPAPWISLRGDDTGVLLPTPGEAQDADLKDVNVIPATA
UniProt P55899, sequence (P61769 21-119, chain 2 of 2, further chain): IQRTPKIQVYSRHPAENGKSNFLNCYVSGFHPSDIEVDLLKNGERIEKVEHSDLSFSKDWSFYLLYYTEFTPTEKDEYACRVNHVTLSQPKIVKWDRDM

rituximab IgG1, full length (from UniProt P01857 1-399) (antibody)
pKd: 7.84
